Consider six molecules from patent US20260226131A1 (SHANGHAI INSTITUTE OF MATERIA MEDICA CHINESE ACADEMY OF …, published 2026).

Experiment [1] deals with IGF-1R-His tag (Sino Biological), human insulin-like growth factor 1 receptor (human) (UniProt P08069). The experiment is described as follows: BLI (Octet), IGF-1R-His captured on Ni-NTA probe, 1:1 fit. For orientation: Biolayer interferometry detects binding as a change in optical thickness at a sensor tip.
The target of experiment [2] is T1, human insulin receptor extracellular domain protein (hIRB-ECD, Sino Biological Inc.) (human, UniProt P06213 28-956).
T1 construct: extracellular domain; Bought protein coated on the ELISA plate
The experiment can be described thus: ELISA, coated hIRB-ECD, anti-human IgG HRP detection. (An ELISA detects its analyte on a solid surface through an enzyme-linked reagent.)

Experiment [3] concerns the target T2, IGF-1R-His tag (Sino Biological), human insulin-like growth factor 1 receptor (human, UniProt P08069 31-932, limits assumed).
T2 construct: Bought recombinant protein captured on Ni-NTA probes; also called His-tagged IGF-1R protein; not shown: His tag
The experiment is described as follows: BLI (Octet), IGF-1R-His captured on Ni-NTA probe, 1:1 fit.

The target in experiment [4] is T3, human insulin receptor isoform A (hIRA), membranes of CHO cells overexpressing hIRA (human, UniProt P06213-2 28-1370).
T3 construct: whole, on cells; The assay used cell membrane preparations
The experiment is described as follows: competition with [125I]-insulin, CHO-hIRA membranes (SPA).

Experiment [5] deals with T4, human insulin receptor isoform B (hIRB), membranes of CHO cells overexpressing hIRB (human, UniProt P06213 28-1382).
T4 construct: whole, on cells; The assay used cell membrane preparations
The experiment can be described thus: competition with [125I]-insulin, CHO-hIRB membranes (SPA).

In general, Kd refers to the constant that tells how readily two partners part at equilibrium. What is called koff is a measure of how fast the partners let go of each other. The term kon denotes a measure of how fast the partners come together. A higher kon goes with faster complex formation. In general, EC50 refers to the concentration needed to bring the measured effect to its halfway point. A lower EC50 goes with greater potency. As usually defined, the IC50 is the midpoint of a concentration-inhibition curve.

In experiment [1], “glargine insulin (Lantus, Sanofi) (ligand)” yielded a Kd of 764 nM, a koff of 0.0192 s⁻¹ and a kon of 25100 M⁻¹ s⁻¹.

B1: Insulin-Fc fusion protein of Example 8 (des B27-30+A3-A+A21G) (Fc fusion)
chain: FVNQHLCGSHLVEALYLVCGERGFFYGGVGGGGIAEQCCTSICSLYQLENYCGGGGGSGGGGSGGGGSGGGGSERKSSVESPPSPAPPVAGPSVFLFPPKPKDTLMISRTPEVTCVVVDVSQEDPEVQFNWYVDGVEVHNAKTKPREEQFNSTFRVVSVLTVLHQDWLNGKEYKCKVSNKGLPSSIEKTISKTKGQPREPQVYTLPPSREEMTKNQVSLTCLVKGFYPSDIAVEWESNGQPENNYKTTPPMLDSDGSFFLYSKLTVDKSRWQQGNVFSCSVMHEALHNHYTQKSLSLSLG
Consider B1, for which a half-maximal response in experiment [2] (EC50) required 314 nM.

B2: Insulin-Fc fusion protein of Example 1 (B27E+A3-A+A21G) (Fc fusion)
chain: FVNQHLCGSHLVEALYLVCGERGFFYEPKTGGVGGGGIAEQCCTSICSLYQLENYCGGGGGSGGGGSGGGGSGGGGSERKSSVESPPSPAPPVAGPSVFLFPPKPKDTLMISRTPEVTCVVVDVSQEDPEVQFNWYVDGVEVHNAKTKPREEQFNSTFRVVSVLTVLHQDWLNGKEYKCKVSNKGLPSSIEKTISKTKGQPREPQVYTLPPSREEMTKNQVSLTCLVKGFYPSDIAVEWESNGQPENNYKTTPPMLDSDGSFFLYSKLTVDKSRWQQGNVFSCSVMHEALHNHYTQKSLSLSLG
The molecule B2 registered an EC50 in experiment [2] of 160 nM. In experiment [3], this molecule returned a Kd of 6.49 µM, a koff of 0.00336 s⁻¹ and a kon of 518 M⁻¹ s⁻¹. Moreover, in experiment [4], the IC50 amounted to 102 nM and the “Maximum Receptor Binding Activity (%) Relative to RHI” value was found to be 78.7%. In experiment [5], the IC50 amounted to 509 nM and the “Maximum Receptor Binding Activity (%) Relative to RHI” value is 74.3%.

B3: Insulin-Fc fusion protein of Example 6 (B16-A+A3-A+A21G) (Fc fusion)
chain: FVNQHLCGSHLVEALALVCGERGFFYTPKTGGVGGGGIAEQCCTSICSLYQLENYCGGGGGSGGGGSGGGGSGGGGSERKSSVESPPSPAPPVAGPSVFLFPPKPKDTLMISRTPEVTCVVVDVSQEDPEVQFNWYVDGVEVHNAKTKPREEQFNSTFRVVSVLTVLHQDWLNGKEYKCKVSNKGLPSSIEKTISKTKGQPREPQVYTLPPSREEMTKNQVSLTCLVKGFYPSDIAVEWESNGQPENNYKTTPPMLDSDGSFFLYSKLTVDKSRWQQGNVFSCSVMHEALHNHYTQKSLSLSLG
Regarding B3, the EC50 in experiment [2] turned out to be 445 nM.

B4: Insulin-Fc fusion protein of Example 7 (B25-T+B27-E A3-A+A21G) (Fc fusion)
chain: FVNQHLCGSHLVEALYLVCGERGFTYEPKTGGVGGGGIAEQCCTSICSLYQLENYCGGGGGSGGGGSGGGGSGGGGSERKSSVESPPSPAPPVAGPSVFLFPPKPKDTLMISRTPEVTCVVVDVSQEDPEVQFNWYVDGVEVHNAKTKPREEQFNSTFRVVSVLTVLHQDWLNGKEYKCKVSNKGLPSSIEKTISKTKGQPREPQVYTLPPSREEMTKNQVSLTCLVKGFYPSDIAVEWESNGQPENNYKTTPPMLDSDGSFFLYSKLTVDKSRWQQGNVFSCSVMHEALHNHYTQKSLSLSLG
As to B4, in experiment [2], the response was half-maximal at 699 nM (EC50).

B5: Insulin-Fc fusion protein of Example 5 (B5-A+A21G) (Fc fusion)
chain: FVNQALCGSHLVEALYLVCGERGFFYTPKTGGVGGGGIVEQCCTSICSLYQLENYCGGGGGSGGGGSGGGGSGGGGSERKSSVESPPSPAPPVAGPSVFLFPPKPKDTLMISRTPEVTCVVVDVSQEDPEVQFNWYVDGVEVHNAKTKPREEQFNSTFRVVSVLTVLHQDWLNGKEYKCKVSNKGLPSSIEKTISKTKGQPREPQVYTLPPSREEMTKNQVSLTCLVKGFYPSDIAVEWESNGQPENNYKTTPPMLDSDGSFFLYSKLTVDKSRWQQGNVFSCSVMHEALHNHYTQKSLSLSLG
B5 returned a 50% effective concentration (EC50) in experiment [2] of 160 nM.
